Data on 2 molecules can be found in patent US20230017777, “MONOCYTE AND MACROPHAGE BINDING APTAMERS AND THEIR APPLICATION” (University of Washington, published 2023).

For data set [1], the target named is T1, CD14 (UniProt P08571 P08571:20-345).
T1 sequence: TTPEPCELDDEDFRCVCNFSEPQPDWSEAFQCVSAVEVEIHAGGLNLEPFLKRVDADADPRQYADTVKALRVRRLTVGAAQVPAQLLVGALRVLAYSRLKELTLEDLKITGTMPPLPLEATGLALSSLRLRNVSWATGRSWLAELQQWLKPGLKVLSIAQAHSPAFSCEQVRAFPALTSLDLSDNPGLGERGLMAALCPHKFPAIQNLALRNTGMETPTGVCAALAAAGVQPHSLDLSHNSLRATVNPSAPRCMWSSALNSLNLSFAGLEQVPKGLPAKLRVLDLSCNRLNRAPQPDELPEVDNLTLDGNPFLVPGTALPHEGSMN
The data set can be described thus: BLI; no significant binding over SCRM; figure legend calls it SPR, text says BLI (Octet Red96). Conditions: label: Cy5.

Data set [2] addresses T1, CD14. The data set can be described thus: BLI; nonspecific aptamer control. The settings on record: label: Cy5 (flow cytometry). (In BLI a coated tip is dipped into the sample, and binding shifts an interference pattern.)

B1: A2 (ssDNA)
DNA: ATCCAGAGTGACGCAGCAGAAGAGTAGATGAAACGTTTTTTCGCCCGATAAAAGGGACGTGCGTCAGACATGGACACGGTGGCTTAGT
As for B1, the binding result in the data set with CD14 [1] is given as “no binding”.

B2: SCRM (scrambled / nonspecific control aptamer) (ssDNA)
DNA: ATCCAGAGTGACGCAGCAATGATAGTGACGTACGGACTAGGGATCACCCATATCATGTAGAGGAAGTACGTGGACACGGTGGCTTAGT
For the molecule B2, in the data set with CD14 [2], the binding result is on record as “no binding”.
